Results published in US20220218001A1, “REDOX ENZYMES IN ANIMAL FEED COMPOSITIONS” (Novozymes A/S, priority 2019, published 2022).
Where two headings read alike, the source gives them in different places.

What was measured:
[1] = Growth performance of early weaned piglets fed SOD and CAT; format: in vivo
Experimental: The effect of antioxidant enzymes (SOD and CAT) alone at different doses and in combination on the growth performance of early weaned piglets was evaluated in a trial run. A total of eight treatments were tested during the study: 6 test groups: SOD (Product A, SEQ ID No. 1 at 1250 and 2500 U/kg), CAT (Product B, SEQ ID NO 7 and Product C, […]; […]); were compared against a Positive Control feed (fed with Avilamycin at 90.7 g/lb) and a Negative Control (standard ration). Each of treatments contained 12 replicates per treatment randomly assigned and containing 5 male piglets per replicate for a total number of 480 animals on study. Piglets were randomly assigned to treatments on Trial Day 0 (post-weaning at 21 days of age). At 42 days of age, live performance (growth weight gain and feed conversion) was determined. All rations were formulated with an increase of approximately 5-6% additional crude protein above normal commercial levels. Blood samples were collected at day 0, 14 and 42 to evaluate oxidative stress parameters at DSM. Gut tissue samples at the duodenum and ileum to evaluate gene expression linked to oxidative stress, and intestinal content (ileum and caecum), to study the microbiome population, were collected from 12 animals at the beginning of the trial (baseline) and one animal per pen (12 piglets×8 treatments) at day 14 and at day 42.
The commercial-simulated test model employed in this study used piglets reared under a normal swine industry Starter diet (Trial Day 0-21) and Grower diet (Trial Day 21-42), reared on slatted floors. Ration formulations were conducted via computer-generated linear regression program that simulates formulations conducted during practical swine production techniques. Treatments were tested in male piglets. Piglets were continuously fed their experimental diets from time of placement on Trial Day 0 to Trial Day 42.
Piglets were weighed and randomly placed into each pen on Trial Day 0 and fed their respective diets. Each pen had sufficient floor density, feeder and waterer space for each grow-out area for the piglets. Following 42 days of grow-out, piglets were weighed, feed consumption determined, and feed conversion (feed consumed/[…]) calculated.
A total of 500 male piglets (a sufficient number to ensure availability of at least 480 healthy male piglets for the conduct of the study) were obtained from a swine breeder on Trial Day 0 (upon weaning, when the piglets were 21 days of age). Piglets were fed their respective treatment feed ad libitum from Trial Day 0 to Trial Day 42.
Each experimental test unit of swine pens was housed in separated pens, located in a room containing forced air heaters with a cross-house ventilation system. Piglets were placed in a 6 ft×6 ft pen floor area with a minimum of 9.0 ft^2 per piglet (without feeder and waterer space) provided. At least two nipple drinkers per pen (via well water) provided water. Piglets were observed daily for overall health, behavior and/or evidence of toxicity, and environmental conditions. Temperature in the test facility was checked daily. Drinking water and feed were confirmed to be provided ad libitum. No type of medication (other than test material) was administered during the entire feeding period.
Live performance body weights and feed intakes were collected on Days 0, 14, 21, and 42 during the growing period. Weight gain, feed intake, feed:gain ratio (feed efficiency) were calculated for 0-42 days of age between weaning and Trial Day 42. Differences between piglets fed control and test groups were statistically evaluated at P<0.05 in a typical ANOVA analysis of variance test model, employing Treatment×Replicate RCB (Randomized Complete Block). Control group was considered to be the following: Treatment 2, containing Avilamycin at 90.7 g/lb.
Diets were fed in two feed phases: Starter diet (0-21 days of age) and Grower diet (21-42 days of age). All diets were offered ad libitum, without restriction. […]

pepsin [2] = biological target: T1, pepsin (Sus scrofa, UniProt P00791); experiment: Gastric stability of superoxide dismutases (method of Example 10, gastric treatment with pepsin); format: in vitro ADME
T1 construct: purchased Sigma P7000; host or cells: porcine gastric mucosa (natural source)
T1 sequence (P00791 60-385): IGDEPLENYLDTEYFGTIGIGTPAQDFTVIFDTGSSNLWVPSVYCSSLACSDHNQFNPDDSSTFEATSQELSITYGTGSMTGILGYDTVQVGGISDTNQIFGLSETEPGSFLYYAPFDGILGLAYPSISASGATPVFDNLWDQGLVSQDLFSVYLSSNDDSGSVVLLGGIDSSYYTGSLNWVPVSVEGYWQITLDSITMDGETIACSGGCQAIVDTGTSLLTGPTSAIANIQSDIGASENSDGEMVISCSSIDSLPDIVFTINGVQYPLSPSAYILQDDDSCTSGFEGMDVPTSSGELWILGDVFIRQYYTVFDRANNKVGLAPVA

pepsin [3] = biological target: T1, pepsin; experiment: as above; format: in vitro ADME; remark: listed apart in the source
Experimental: retains only 26% of its activity upon gastric treatment in the presence of pepsin.
Two commercial SODs were tested as references: SOD-Mn, from E. coli Sigma S5639 with a activity of 10240 U/mg EP and only 26% activity left after gastric press for 30 min; and SOD-Cu/Zn from Bovine expressed in E. coli Sigma S9697 with activity of 6108 U/mg EP and only 35% activity left after gastric press for 30 min.

[4] = Superoxide dismutase activity (method of Example 9, pH 7.8); format: biochemical; conditions: SOD activity
[5] = Thermal stability of superoxide dismutases at different pH, Tm unfolding temperature (method of Example 11); format: physicochemical
Experimental: Tm: The term Tm, as used in the Examples refers to the temperature at which 50% of the protein molecules are unfolded and 50% of the protein molecules are folded.
Test were performed on the super oxide dismutases of the invention to measure the temperature at different acidity/alkalinity to determine the temperature at which the polypeptide unfolds and denatures. […] A further embodiment is directed to an animal feed additive comprising a fungal superoxide dismutase thermally stable at pH 7, when measured according to the method described in Example 11, such that protein unfolding (Tm) is 45° C. or more.

[6] = Piglet trial, growth performance d0-42; format: in vivo; conditions: piglets, days 0-42
Text: FIG. 17: illustrates the Conversion Ratio (FCR) in piglets from days 0-42. There was significant difference observed in growth performance between positive and negative control.

## COC[C@H]1O[C@@H](OC2OC[C@@H]3O[C@]4(O[C@H]3[C@H]2OC(=O)C(C)C)O[C@H](C)[C@@](O)(C(C)=O)[C@@H]2OCO[C@H]24)[C@@H](OC)[C@@H](O)[C@@H]1O[C@@H]1O[C@H](C)[C@H](OC)[C@H](O[C@H]2C[C@@]3(C)OC4(C[C@@H](O)[C@H](O[C@H]5C[C@@H](O)[C@H](OC(=O)c6c(C)c(Cl)c(O)c(Cl)c6OC)[C@@H](C)O5)[C@@H](C)O4)O[C@@H]3[C@@H](C)O2)[C@H]1O (stereo partly shown) [T2, Avilamycin]
[1]; d0-d42, vs Negative Control, SOD+CAT 400:100 U/kg
  feed conversion (FCR): improved
[1]; piglets, day 0-14
  Average Body Wt. Gain (kg) Day 0-14: 3.720 kg
  Feed Conversion Corrected Day 0-14: 1.215
  Feed Intake (kg/pig) Day 0-14: 4.52 kg/pig
  Mortality % Day 0-14: 0.000%
[1]; piglets, day 14
  Average Body Wt. (kg) Day 14: 9.215 kg
  Body Weight Coefficient of Variation (Day 14): 4.700

## S9697 Bovine Cu/Zn SOD SIGMA: commercially available superoxide dismutase from bovine erythrocytes and expressed in E. coli of sequence A
Pepsin [2]; 0.25 h
  Gastric stability after 15 min (remaining activity, approx, %): 35%
Pepsin [3]
  activity left after gastric press for 30 min: 35%
  activity retained upon gastric treatment in the presence of pepsin: 26%
  loss of activity under gastric stability studies: 65%
[4]
  Relative Activity Unit (U/mg EP): 6108 U/mg EP
[5]; 50° C., method of Example 11
  activity retained at 50° C.: very little
[5]; pH 3
  Tm (unfolding temperature): 50.8 °C
[5]; pH 4
  Tm (unfolding temperature): 59.3 °C
[5]; pH 5
  Tm (unfolding temperature): 63.9 °C
[5]; pH 6
  Tm (unfolding temperature): 66.2 °C
[5]; pH 7
  Tm (unfolding temperature): 65.2 °C
[5]; pH 8
  Tm (unfolding temperature): 63.1 °C
[5]; pH 9
  Tm (unfolding temperature): 61.0 °C
[5]; pH 10
  Tm (unfolding temperature): 57.0 °C

B1: SEQ ID NO 35: superoxide dismutase; donor Trichoderma rossicum in b755, Trichoderma sp-44174 in b566 (protein)
chain: MRASGILTVLSLAVSSCVAEKDAPIVTGNPHSVEYKATLPKKPFFSNAALVGNVKGYVSAVAAPSGKGVRFSVQFENFPKSGGPFMYHIHEEPATNGNCTSTLAHLDPYHRGETPACDSSKPETCQVGDLSGKYGKITSDPFVAEYFDLYTSLQPGSPAFFGNRSIVVHYANKTRLTCANFAKLPVSDTATKAHTTTSAHHTVIHGPAASGGRHNTTSSHNITGPHYTTGSHHTTDVSPTGSLNPTGIVTAPGSPTTPATFTTVAAGGSASATSSIVPFPGAASGNRVSLALLSGVVAAMFFSL
modifications: Trichoderma sp-44174
notes: superoxide dismutase; donor Trichoderma rossicum, Trichoderma sp-44174 in b566
Pepsin [3]
  activity retained under gastric stability studies: at least 40%
[4]
  Relative Activity Unit (U/mg EP): ~3000 U/mg EP

B2: S5639 from Sigma Mn-SOD Escherichia coli: commercially available bacterial (from E. coli) Mn-SOD (protein, UniProt P00448 2-206, looked up)
Superoxide dismutase [Mn]: SYTLPSLPYAYDALEPHFDKQTMEIHHTKHHQTYVNNANAALESLPEFANLPVEELITKLDQLPADKKTVLRNNAGGHANHSLFWKGLKKGTTLQGDLKAAIERDFGSVDNFKAEFEKAAASRFGSGWAWLVLKGDKLAVVSTANQDSPLMGEAISGASGFPIMGLDVWEHAYYLKFQNRRPDYIKEFWNVVNWDEAAARFAAKK
Pepsin [2]; after 15 min, method of Example 10
  Gastric stability after 15 min (remaining activity, approx, %): 26%
Pepsin [3]
  loss of activity under gastric stability studies: 57%
Pepsin [3]; 30 min
  activity left after gastric press for 30 min: 26%
[4]
  Relative Activity Unit (U/mg EP): 10240 U/mg EP

B3: Catalase: Catalase fed alone in the piglet trial of FIG. 17 (protein)
chain: MRHFWLLPAVAGIAGAQCPYLSGEMSFTQEQDNAGDTIEVTEQTIDNTLYVNDTGSYMTTDFGTPISDQYSLKAGRRGPTLLEDFIFRQKLQRFDHERVPERVVHARGAGAYGTFKSYADWSNVTAADFLSANEKETPMFCRFSTVVGFRGSVDTARDVHGHACRFYTDEGNYDIVGINFAPFFIQDAIQFPDLVHAIKPMPNNEIPQAATAHTSAWDFFSQQSTALHSALWLMSGNGIPRSFRHMNGYGVHSFRFVAANGTSKVVRYRWKSQQGVASLVWEEAQAAAGKNSDYHRQDLYNAIANGHYPKYELQAQIMDEADMLRFGFDLLDPTKLVPEEVVPYTPLGMMELNANPTNYFAEVEQAGFQPGHVVPGIDFTDDPLLQGRLFSYLDTQLTRHGGPNFEQIPVNRPRKPVHNNNRDGFGQQQIPTNNWAYTPNTMSNGYPMQANQTHGHGFFTSPYRYASGHLIREPSPTFHDHWSQPAMFWNSLIPAEQQMVVNAIVFENSKVNSPHVRKNVVNQLNMVNNNLAVRVARGLGLDEPSPNPTYYTSNKTSNVGTFGKPLLSIEGLQVGFLASNSHPESIKQGQAMAAQFSAAGVDLNIVTEAYADGVNTTYALSDAIDFDALIIADGVQSLFASPSLANQMNSTATSTLYPPARPYQILVDSFRYGKPVAAVGSGSAALKNAGIDTSRSGVYTGSSETTENIAKEVLKGLYTFRFVDRFALDE
modifications: Aspergillus niger; mat_peptide (1)..(740)
[6]
  Feed Conversion Ratio (FCR): significantly improved the FCR
